In IntAct's records for PubMed 31515488:

B1: Guanine nucleotide exchange factor for Rab-3A (Homo sapiens), Q8TBN0 (parent)
chain: MWSGPPQPDQGLPPPLAAVPVPWKSTDPCQGHRESPGALVETSAGEEAQGQEGPAAAQLDVLRLRSSSMEIREKGSEFLKEELHRAQKELKLKDEECERLSKVREQLEQELEELTASLFEEAHKMVREANMKQAASEKQLKEARGKIDMLQAEVTALKTLVITSTPASPNRELHPQLLSPTKAGPRKGHSRHKSTSSTLCPAVCPAAGHTLTPDREGKEVDTILFAEFQAWRESPTLDKTCPFLERVYREDVGPCLDFTMQELSVLVRAAVEDNTLTIEPVASQTLPTVKVAEVDCSSTNTCALSGLTRTCRHRIRLGDSKSHYYISPSSRARITAVCNFFTYIRYIQQGLVRQDAEPMFWEIMRLRKEMSLAKLGFFPQEA
partner: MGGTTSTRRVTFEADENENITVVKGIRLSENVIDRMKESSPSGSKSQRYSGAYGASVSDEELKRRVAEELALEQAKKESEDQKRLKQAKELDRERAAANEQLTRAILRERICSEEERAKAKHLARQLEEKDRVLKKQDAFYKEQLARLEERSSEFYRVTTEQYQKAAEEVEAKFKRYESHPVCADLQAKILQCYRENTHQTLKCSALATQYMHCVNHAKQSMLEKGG
B2: U6 snRNA-associated Sm-like protein LSm7 (Homo sapiens), Q9UK45 (parent)
chain: MADKEKKKKESILDLSKYIDKTIRVKFQGGREASGILKGFDPLLNLVLDGTIEYMRDPDDQYKLTEDTRQLGLVVCRGTSVVLICPQDGMEAIPNPFIQQQDA
B3: Polyunsaturated fatty acid 5-lipoxygenase (Homo sapiens), P09917 (parent)
chain: MPSYTVTVATGSQWFAGTDDYIYLSLVGSAGCSEKHLLDKPFYNDFERGAVDSYDVTVDEELGEIQLVRIEKRKYWLNDDWYLKYITLKTPHGDYIEFPCYRWITGDVEVVLRDGRAKLARDDQIHILKQHRRKELETRQKQYRWMEWNPGFPLSIDAKCHKDLPRDIQFDSEKGVDFVLNYSKAMENLFINRFMHMFQSSWNDFADFEKIFVKISNTISERVMNHWQEDLMFGYQFLNGCNPVLIRRCTELPEKLPVTTEMVECSLERQLSLEQEVQQGNIFIVDFELLDGIDANKTDPCTLQFLAAPICLLYKNLANKIVPIAIQLNQIPGDENPIFLPSDAKYDWLLAKIWVRSSDFHVHQTITHLLRTHLVSEVFGIAMYRQLPAVHPIFKLLVAHVRFTIAINTKAREQLICECGLFDKANATGGGGHVQMVQRAMKDLTYASLCFPEAIKARGMESKEDIPYYFYRDDGLLVWEAIRTFTAEVVDIYYEGDQVVEEDPELQDFVNDVYVYGMRGRKSSGFPKSVKSREQLSEYLTVVIFTASAQHAAVNFGQYDWCSWIPNAPPTMRAPPPTAKGVVTIEQIVDTLPDRGRSCWHLGAVWALSQFQENELFLGMYPEEHFIEKPVKEAMARFRKNLEAIVSVIAERNKKKQLPYYYLSPDRIPNSVAI
B4: Protein BANP (Homo sapiens), Q8N9N5-2 (parent)
chain: MMSEHDLADVVQIAVEDLSPDHPVVLENHVVTDEDEPALKRQRLEINCQDPSIKSFLYSINQTICLRLDSIEAKLQALEATCKSLEEKLDLVTNKQHSPIQVPMVAGSPLGATQTCNKVRCAVPGRRQNTIVVKVPGQEDSHHEDGESGSEASDSVSSCGQAGSQSIGSNVTLITLNSEEDYPNGTWLGDENNPEMRVRCAIIPSDMLHISTNCRTAEKMALTLLDYLFHREVQAVSNLSGQGKHGKKQLDPLTIYGIRCHLFYKFGITESDWYRIKQSIDSKCRTAWRRKQRGQSLAVKSFSRRTPNSSSYCPSEPMMSTPPPASELPQPQPQPQALHYALANAQQVQIHQIGEDGQVQVIPQGHLHIAQVPQGEQVQITQDSEGNLQIHHVGQDGQVLQGAQLIAVASSDPAAAGVDGSPLQGSDIQVQYVQLAPVSDHTAGAQTAEALQPTLQPEMQLEHGAIQIQ
partner: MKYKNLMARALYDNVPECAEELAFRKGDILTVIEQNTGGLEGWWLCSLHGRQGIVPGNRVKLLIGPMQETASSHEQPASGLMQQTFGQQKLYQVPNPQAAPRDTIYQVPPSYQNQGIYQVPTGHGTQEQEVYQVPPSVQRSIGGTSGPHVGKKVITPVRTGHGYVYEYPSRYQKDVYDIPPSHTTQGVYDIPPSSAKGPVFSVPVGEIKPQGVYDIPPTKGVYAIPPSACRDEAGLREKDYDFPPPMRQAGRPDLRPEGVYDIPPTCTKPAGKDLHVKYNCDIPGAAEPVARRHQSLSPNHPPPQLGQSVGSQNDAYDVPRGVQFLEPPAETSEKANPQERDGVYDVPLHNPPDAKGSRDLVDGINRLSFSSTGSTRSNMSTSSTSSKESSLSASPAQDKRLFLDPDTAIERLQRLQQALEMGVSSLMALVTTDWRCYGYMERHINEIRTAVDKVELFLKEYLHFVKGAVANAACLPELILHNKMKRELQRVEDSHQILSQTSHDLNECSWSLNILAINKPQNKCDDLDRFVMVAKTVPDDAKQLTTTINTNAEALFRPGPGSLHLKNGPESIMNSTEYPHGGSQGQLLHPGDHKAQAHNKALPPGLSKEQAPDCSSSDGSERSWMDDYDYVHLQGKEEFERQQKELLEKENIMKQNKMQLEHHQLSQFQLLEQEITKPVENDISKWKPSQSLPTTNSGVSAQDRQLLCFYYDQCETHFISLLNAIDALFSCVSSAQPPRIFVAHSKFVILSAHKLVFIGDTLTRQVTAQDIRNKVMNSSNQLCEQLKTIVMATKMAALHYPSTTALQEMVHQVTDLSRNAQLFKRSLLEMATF
B5: Sulfotransferase 1A1 (Homo sapiens), P50225 (parent)
chain: MELIQDTSRPPLEYVKGVPLIKYFAEALGPLQSFQARPDDLLISTYPKSGTTWVSQILDMIYQGGDLEKCHRAPIFMRVPFLEFKAPGIPSGMETLKDTPAPRLLKTHLPLALLPQTLLDQKVKVVYVARNAKDVAVSYYHFYHMAKVHPEPGTWDSFLEKFMVGEVSYGSWYQHVQEWWELSRTHPVLYLFYEDMKENPKREIQKILEFVGRSLPEETVDFVVQHTSFKEMKKNPMTNYTTVPQEFMDHSISPFMRKGMAGDWKTTFTVAQNERFDADYAEKMAGCSLSFRSEL
partner: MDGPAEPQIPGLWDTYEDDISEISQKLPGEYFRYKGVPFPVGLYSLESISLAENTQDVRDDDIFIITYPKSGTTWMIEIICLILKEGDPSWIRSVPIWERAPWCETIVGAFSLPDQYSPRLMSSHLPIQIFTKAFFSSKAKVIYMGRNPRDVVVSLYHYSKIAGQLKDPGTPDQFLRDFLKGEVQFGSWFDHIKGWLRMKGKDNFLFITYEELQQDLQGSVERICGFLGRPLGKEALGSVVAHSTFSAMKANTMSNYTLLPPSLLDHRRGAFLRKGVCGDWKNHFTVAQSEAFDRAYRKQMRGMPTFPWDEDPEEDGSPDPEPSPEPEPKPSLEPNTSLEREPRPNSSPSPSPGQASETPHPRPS
B6: Ribose-phosphate pyrophosphokinase 1 (Homo sapiens), P60891 (parent)
chain: MPNIKIFSGSSHQDLSQKIADRLGLELGKVVTKKFSNQETCVEIGESVRGEDVYIVQSGCGEINDNLMELLIMINACKIASASRVTAVIPCFPYARQDKKDKSRAPISAKLVANMLSVAGADHIITMDLHASQIQGFFDIPVDNLYAEPAVLKWIRENISEWRNCTIVSPDAGGAKRVTSIADRLNVDFALIHKERKKANEVDRMVLVGDVKDRVAILVDDMADTCGTICHAADKLLSAGATRVYAILTHGIFSGPAISRINNACFEAVVVTNTIPQEDKMKHCSKIQVIDISMILAEAIRRTHNGESVSYLFSHVPL
partner: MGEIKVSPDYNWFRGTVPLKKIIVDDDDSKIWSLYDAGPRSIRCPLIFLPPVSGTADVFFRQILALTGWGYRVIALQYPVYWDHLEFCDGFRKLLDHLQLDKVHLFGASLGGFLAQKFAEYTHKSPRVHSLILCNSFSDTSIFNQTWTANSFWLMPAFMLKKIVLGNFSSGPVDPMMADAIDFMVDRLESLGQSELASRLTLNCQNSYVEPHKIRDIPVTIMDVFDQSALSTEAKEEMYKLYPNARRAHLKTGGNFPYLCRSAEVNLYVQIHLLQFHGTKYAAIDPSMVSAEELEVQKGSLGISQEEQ
B7: Germ cell-less protein-like 1 (Homo sapiens), Q96IK5 (parent)
chain: MGSLSSRVLRQPRPALAQQAQGARAGGSARRPDTGDDAAGHGFCYCAGSHKRKRSSGSFCYCHPDSETDEDEEEGDEQQRLLNTPRRKKLKSTSKYIYQTLFLNGENSDIKICALGEEWSLHKIYLCQSGYFSSMFSGSWKESSMNIIELEIPDQNIDVEALQVAFGSLYRDDVLIKPSRVVAILAAACLLQLDGLIQQCGETMKETVNVKTVCGYYTSAGTYGLDSVKKKCLEWLLNNLMTHQNVELFKELSINVMKQLIGSSNLFVMQVEMDIYTALKKWMFLQLVPSWNGSLKQLLTETDVWFSKQRKDFEGMAFLETEQGKPFVSVFRHLRLQYIISDLASARIIEQDAVVPSEWLSSVYKQQWFAMLRAEQDSEVGPQEINKEELEGNSMRCGRKLAKDGEYCWRWTGFNFGFDLLVTYTNRYIIFKRNTLNQPCSGSVSLQPRRSIAFRLRLASFDSSGKLICSRTTGYQILTLEKDQEQVVMNLDSRLLIFPLYICCNFLYISPEKKN

Variants of: B1
Conditions: with mic19_human CHCHD3, Q9NX63

effect of a mutation on the interaction	Variant
with no effect	S190P
with no effect	Q49R

Variants of: B2
Conditions: with lsm5_human LSM5, Q9Y4Y9
lsm5_human LSM5, Q9Y4Y9, sequence (Q9Y4Y9 whole entry): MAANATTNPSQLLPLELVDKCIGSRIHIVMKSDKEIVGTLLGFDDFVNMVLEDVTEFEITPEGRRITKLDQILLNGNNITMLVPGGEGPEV

effect of a mutation on the interaction	Variant
with no effect	G78A

Variants of: B3
Conditions: with cep63_human CEP63, Q96MT8
cep63_human CEP63, Q96MT8, sequence (Q96MT8 whole entry): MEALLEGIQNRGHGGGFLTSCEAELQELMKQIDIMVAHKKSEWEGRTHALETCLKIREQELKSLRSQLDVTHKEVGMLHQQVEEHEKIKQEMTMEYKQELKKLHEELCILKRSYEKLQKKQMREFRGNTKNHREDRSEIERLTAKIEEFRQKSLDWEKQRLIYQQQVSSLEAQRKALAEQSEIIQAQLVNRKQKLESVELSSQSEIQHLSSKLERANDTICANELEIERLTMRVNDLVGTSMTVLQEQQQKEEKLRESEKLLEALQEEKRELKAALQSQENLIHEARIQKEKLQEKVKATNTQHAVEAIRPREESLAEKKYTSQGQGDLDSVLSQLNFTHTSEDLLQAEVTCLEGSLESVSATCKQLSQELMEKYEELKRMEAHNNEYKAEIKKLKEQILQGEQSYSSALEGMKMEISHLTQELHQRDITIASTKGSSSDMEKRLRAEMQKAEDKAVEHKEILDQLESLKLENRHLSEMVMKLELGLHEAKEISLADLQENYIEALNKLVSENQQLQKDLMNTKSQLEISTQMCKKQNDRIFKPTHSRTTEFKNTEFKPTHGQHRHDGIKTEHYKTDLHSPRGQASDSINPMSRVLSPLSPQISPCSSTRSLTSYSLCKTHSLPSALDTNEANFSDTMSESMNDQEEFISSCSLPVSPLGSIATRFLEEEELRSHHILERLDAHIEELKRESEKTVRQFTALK

effect of a mutation on the interaction	Variant
with no effect	E254K

Variants of: B3
Conditions: with nutm1_human NUTM1, Q86Y26
nutm1_human NUTM1, Q86Y26, sequence (Q86Y26 whole entry): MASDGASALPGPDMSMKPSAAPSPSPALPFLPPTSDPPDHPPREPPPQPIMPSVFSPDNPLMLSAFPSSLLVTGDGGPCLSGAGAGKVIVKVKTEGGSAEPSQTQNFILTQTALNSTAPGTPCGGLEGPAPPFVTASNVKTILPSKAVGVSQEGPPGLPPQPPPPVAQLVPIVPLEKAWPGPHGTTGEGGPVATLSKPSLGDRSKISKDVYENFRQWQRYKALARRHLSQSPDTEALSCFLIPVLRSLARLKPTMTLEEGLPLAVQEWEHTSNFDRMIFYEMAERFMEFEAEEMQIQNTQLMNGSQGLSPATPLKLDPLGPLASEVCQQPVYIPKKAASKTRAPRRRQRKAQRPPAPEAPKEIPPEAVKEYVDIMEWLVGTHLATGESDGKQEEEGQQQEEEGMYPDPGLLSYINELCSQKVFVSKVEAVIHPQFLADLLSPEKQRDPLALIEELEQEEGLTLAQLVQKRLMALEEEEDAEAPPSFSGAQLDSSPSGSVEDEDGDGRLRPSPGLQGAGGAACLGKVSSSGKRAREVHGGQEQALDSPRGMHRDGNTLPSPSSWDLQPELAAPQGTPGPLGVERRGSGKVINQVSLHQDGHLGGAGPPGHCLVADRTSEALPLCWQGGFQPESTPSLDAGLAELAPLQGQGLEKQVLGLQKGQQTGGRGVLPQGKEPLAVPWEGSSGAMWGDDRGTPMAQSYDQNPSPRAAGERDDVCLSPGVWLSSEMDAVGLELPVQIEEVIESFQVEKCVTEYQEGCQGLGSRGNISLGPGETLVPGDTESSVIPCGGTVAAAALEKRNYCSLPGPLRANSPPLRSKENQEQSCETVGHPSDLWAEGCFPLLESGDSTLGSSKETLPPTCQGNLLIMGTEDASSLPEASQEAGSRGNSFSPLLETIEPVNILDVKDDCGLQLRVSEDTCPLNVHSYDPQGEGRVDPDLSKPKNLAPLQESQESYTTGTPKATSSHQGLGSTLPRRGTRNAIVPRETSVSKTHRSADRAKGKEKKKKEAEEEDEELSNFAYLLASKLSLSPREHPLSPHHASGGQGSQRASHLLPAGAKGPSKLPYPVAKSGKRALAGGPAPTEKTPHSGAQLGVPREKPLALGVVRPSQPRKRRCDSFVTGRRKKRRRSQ

effect of a mutation on the interaction	Variant
with no effect	E254K

Variants of: B4
Conditions: with casl_human NEDD9, Q14511

effect of a mutation on the interaction	Variant
with no effect	A162V

Variants of: B5
Conditions: with st2b1_human SULT2B1, O00204

effect of a mutation on the interaction	Variant
with no effect	V223M

Variants of: B6
Conditions: with spg21_human SPG21, Q9NZD8

effect of a mutation on the interaction	Variant
with no effect	D183H
with no effect	E43D

Variants of: B7
Conditions: with cul3_human CUL3, Q13618

effect of a mutation on the interaction	Variant
with no effect	I340V
with no effect	K281Q
with no effect	R457H
with no effect	I147V
with no effect	E77K
with no effect	R449Q
with no effect	Y61S

Variants of: B7
Conditions: with FAM167A

effect of a mutation on the interaction	Variant
with no effect	I340V
disrupting interaction strength	K281Q
disrupting interaction strength	R457H
with no effect	I147V
with no effect	E77K
with no effect	R449Q
with no effect	Y61S
